Measured values: US20200087373A1 (UNIVERSITY OF COPENHAGEN, published 2020)
Numbered stars: 1 amine (or outer) side, 2 acyl side, 3 side chain; on linkers, the order of the positions; unused ones are H or OH. Side chains are listed from the residue outwards. Ends that are not written are not given here. * marks the point of attachment. C16 diacid = O=C(O)CCCCCCCCCCCCCCC(=O)*; γGlu = O=C(O)[C@H](CCC(=O)[*:2])N[*:1]; Palmitoyl = CCCCCCCCCCCCCCCC(=O)*; AEEA = NCCOCCOCC(=O)O; GABA = NCCCC(=O)O; βAla = NCCC(=O)O

T1: human GIP receptor (human, UniProt P48546 22-466)
T1 sequence (looked up): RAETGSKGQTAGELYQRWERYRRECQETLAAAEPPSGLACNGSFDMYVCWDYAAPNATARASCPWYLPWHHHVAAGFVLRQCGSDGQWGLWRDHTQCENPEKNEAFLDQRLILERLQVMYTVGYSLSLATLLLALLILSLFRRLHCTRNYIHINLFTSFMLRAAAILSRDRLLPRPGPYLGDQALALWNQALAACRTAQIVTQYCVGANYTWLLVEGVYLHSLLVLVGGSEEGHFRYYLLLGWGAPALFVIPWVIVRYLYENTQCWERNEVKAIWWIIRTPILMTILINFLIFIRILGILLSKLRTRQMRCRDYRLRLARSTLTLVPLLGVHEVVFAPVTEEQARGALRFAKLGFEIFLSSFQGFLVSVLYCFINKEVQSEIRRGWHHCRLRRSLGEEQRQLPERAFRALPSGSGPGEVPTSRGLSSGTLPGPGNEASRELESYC


Assays:
human GIP receptor [1] = biological target: T1, human GIP receptor; experiment: cell-based or functional assay
human serum albumin = biological target: T2, human serum albumin (human, UniProt P02768 25-609); experiment: 125I-human GIP competition binding on hGIPR COS-7 cells with and without 2% HSA; fold change of IC50 taken as HSA binding
T2 construct: also called HSA; human albumin
Procedure: (§1) After incubation, the cells were washed twice in ice-cold binding buffer (+/−2% HSA) and lysed using 200 mM NaOH with 1% SDS for 30 min. Nonspecific binding was determined as the binding of radioactive ligand to untransfected cells.

human GIP receptor [2] = biological target: T1, human GIP receptor; experiment: 125I-hGIP competition binding on hGIPR COS-7 cells; fold in affinity, paired, reference taken as GIP(3-30)NH2
Procedure: as §1

human GIP receptor [3] = biological target: T1, human GIP receptor; experiment: 125I-hGIP(1-42) competition binding, COS-7 cells expressing human GIPR
Procedure: as §1

human GIP receptor [4] = biological target: T1, human GIP receptor; experiment: cell-based or functional assay; remark: listed apart in the source
human GIP receptor [5] = biological target: T1, human GIP receptor; experiment: 125I-hGIP(1-42) competition binding, COS-7 cells expressing human GIPR, 2% HSA
Procedure: as §1

human GIP receptor [6] = biological target: T1, human GIP receptor; experiment: 125I-hGIP(1-42) competition binding, COS-7 cells expressing human GIPR, 0.1% casein (no HSA)
Procedure: as §1

T2 sequence (P02768 25-609 limits assumed): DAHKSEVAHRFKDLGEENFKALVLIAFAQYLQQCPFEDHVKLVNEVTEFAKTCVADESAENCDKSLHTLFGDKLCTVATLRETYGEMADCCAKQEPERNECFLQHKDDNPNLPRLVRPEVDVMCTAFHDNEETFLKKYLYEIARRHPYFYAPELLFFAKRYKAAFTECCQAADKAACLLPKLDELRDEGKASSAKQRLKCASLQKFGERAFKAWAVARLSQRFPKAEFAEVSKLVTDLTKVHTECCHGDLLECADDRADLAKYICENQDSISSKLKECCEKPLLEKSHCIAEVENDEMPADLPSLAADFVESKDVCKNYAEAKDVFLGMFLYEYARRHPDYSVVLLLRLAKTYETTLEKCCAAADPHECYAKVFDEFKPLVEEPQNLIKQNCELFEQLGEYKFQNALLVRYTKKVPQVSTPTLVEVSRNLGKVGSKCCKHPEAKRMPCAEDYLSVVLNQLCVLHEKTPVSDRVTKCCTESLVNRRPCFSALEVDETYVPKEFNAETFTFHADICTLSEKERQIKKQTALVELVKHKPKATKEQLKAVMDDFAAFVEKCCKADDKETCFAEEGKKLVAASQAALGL

Row | Binder | cAMP accumulation IC50 (human GIP receptor [1]) [nM] | cAMP accumulation logIC50 (human GIP receptor [1]) | cAMP accumulation Fold change (from GIP(3-30)NH2) (human GIP receptor [1]) [fold] | IC50 (human GIP receptor [3]) [nM] | further results
1 | EGTFISDYSIAMDKIHQQDFVNWLLAQK-NH2 [hGIP(3-30)NH2] | 64.6 | -7.19 log(M) | – | – | –
2 | EGTFISDYSIAMDKIK([βAla-Palmitoyl])QQDFVNWLLAQK-NH2 (N-terminus assumed; SMILES CCCCCCCCCCCCCCCC(=O)NCCC(=O)NCCCC[C@H](NC(=O)[C@@H](NC(=O)[C@H](CCCCN)NC(=O)[C@H](CC(=O)O)NC(=O)[C@H](CCSC)NC(=O)[C@H](C)NC(=O)[C@@H](NC(=O)[C@H](CO)NC(=O)[C@H](Cc1ccc(O)cc1)NC(=O)[C@H](CC(=O)O)NC(=O)[C@H](CO)NC(=O)[C@@H](NC(=O)[C@H](Cc1ccccc1)NC(=O)[C@@H](NC(=O)CNC(=O)[C@@H](N)CCC(=O)O)[C@@H](C)O)[C@@H](C)CC)[C@@H](C)CC)[C@@H](C)CC)C(=O)N[C@@H](CCC(N)=O)C(=O)N[C@@H](CCC(N)=O)C(=O)N[C@@H](CC(=O)O)C(=O)N[C@@H](Cc1ccccc1)C(=O)N[C@H](C(=O)N[C@@H](CC(N)=O)C(=O)N[C@@H](Cc1c[nH]c2ccccc12)C(=O)N[C@@H](CC(C)C)C(=O)N[C@@H](CC(C)C)C(=O)N[C@@H](C)C(=O)N[C@@H](CCC(N)=O)C(=O)N[C@@H](CCCCN)C(N)=O)C(C)C) [AT166 [hGIP(3-30)NH2[H18K]-C16/18+β-alanine]] | 22.9 | -7.64 log(M) | 2.9 | – | –
3 | EGTFISDYSIAMDKIK([GABA-Palmitoyl])QQDFVNWLLAQK-NH2 (N-terminus assumed; SMILES CCCCCCCCCCCCCCCC(=O)NCCCC(=O)NCCCC[C@H](NC(=O)[C@@H](NC(=O)[C@H](CCCCN)NC(=O)[C@H](CC(=O)O)NC(=O)[C@H](CCSC)NC(=O)[C@H](C)NC(=O)[C@@H](NC(=O)[C@H](CO)NC(=O)[C@H](Cc1ccc(O)cc1)NC(=O)[C@H](CC(=O)O)NC(=O)[C@H](CO)NC(=O)[C@@H](NC(=O)[C@H](Cc1ccccc1)NC(=O)[C@@H](NC(=O)CNC(=O)[C@@H](N)CCC(=O)O)[C@@H](C)O)[C@@H](C)CC)[C@@H](C)CC)[C@@H](C)CC)C(=O)N[C@@H](CCC(N)=O)C(=O)N[C@@H](CCC(N)=O)C(=O)N[C@@H](CC(=O)O)C(=O)N[C@@H](Cc1ccccc1)C(=O)N[C@H](C(=O)N[C@@H](CC(N)=O)C(=O)N[C@@H](Cc1c[nH]c2ccccc12)C(=O)N[C@@H](CC(C)C)C(=O)N[C@@H](CC(C)C)C(=O)N[C@@H](C)C(=O)N[C@@H](CCC(N)=O)C(=O)N[C@@H](CCCCN)C(N)=O)C(C)C) [AT165 [hGIP(3-30)NH2[H18K]-C16/18+y-aminobuturic acid]] | 22.4 | -7.65 log(M) | 2.9 | – | –
4 | TFK(C16 diacid)SDYSIAMDKIHQQDFVNWLLAQK-NH2 (N-terminus assumed; SMILES CC[C@H](C)[C@H](NC(=O)[C@H](CO)NC(=O)[C@H](Cc1ccc(O)cc1)NC(=O)[C@H](CC(=O)O)NC(=O)[C@H](CO)NC(=O)[C@H](CCCCNC(=O)CCCCCCCCCCCCCCC(=O)O)NC(=O)[C@H](Cc1ccccc1)NC(=O)[C@@H](N)[C@@H](C)O)C(=O)N[C@@H](C)C(=O)N[C@@H](CCSC)C(=O)N[C@@H](CC(=O)O)C(=O)N[C@@H](CCCCN)C(=O)N[C@H](C(=O)N[C@@H](Cc1c[nH]cn1)C(=O)N[C@@H](CCC(N)=O)C(=O)N[C@@H](CCC(N)=O)C(=O)N[C@@H](CC(=O)O)C(=O)N[C@@H](Cc1ccccc1)C(=O)N[C@H](C(=O)N[C@@H](CC(N)=O)C(=O)N[C@@H](Cc1c[nH]c2ccccc12)C(=O)N[C@@H](CC(C)C)C(=O)N[C@@H](CC(C)C)C(=O)N[C@@H](C)C(=O)N[C@@H](CCC(N)=O)C(=O)N[C@@H](CCCCN)C(N)=O)C(C)C)[C@@H](C)CC) [AT169 [hGIP(5-30)NH2[I7K]-C16diacid/7]] | – | – | – | – | binding result (human serum albumin): binds
5 | EGTFISDYSIAMDKIHQQDFVNWLLAQK (pyroglutamic acid (pGlu) in place of Glu at position 3 in GIP numbering (residue 1 of the entry); C16 (palmitoyl) fatty acid on Lys at position 16 (residue 14 of the entry); C-terminal amide taken from the series hGIP(3-30)NH2) [AT109 (E3pGlu, C16 at position 16)] | – | – | – | 1580 | fold (paired) (human GIP receptor [2]): 74 fold; cAMP - antagonisme fold (paired) (human GIP receptor [4]): 8 fold
6 | EGTFISDYSIAMDKIK(Palmitoyl)QQDFVNWLLAQK-NH2 (N-terminus assumed; SMILES CCCCCCCCCCCCCCCC(=O)NCCCC[C@H](NC(=O)[C@@H](NC(=O)[C@H](CCCCN)NC(=O)[C@H](CC(=O)O)NC(=O)[C@H](CCSC)NC(=O)[C@H](C)NC(=O)[C@@H](NC(=O)[C@H](CO)NC(=O)[C@H](Cc1ccc(O)cc1)NC(=O)[C@H](CC(=O)O)NC(=O)[C@H](CO)NC(=O)[C@@H](NC(=O)[C@H](Cc1ccccc1)NC(=O)[C@@H](NC(=O)CNC(=O)[C@@H](N)CCC(=O)O)[C@@H](C)O)[C@@H](C)CC)[C@@H](C)CC)[C@@H](C)CC)C(=O)N[C@@H](CCC(N)=O)C(=O)N[C@@H](CCC(N)=O)C(=O)N[C@@H](CC(=O)O)C(=O)N[C@@H](Cc1ccccc1)C(=O)N[C@H](C(=O)N[C@@H](CC(N)=O)C(=O)N[C@@H](Cc1c[nH]c2ccccc12)C(=O)N[C@@H](CC(C)C)C(=O)N[C@@H](CC(C)C)C(=O)N[C@@H](C)C(=O)N[C@@H](CCC(N)=O)C(=O)N[C@@H](CCCCN)C(N)=O)C(C)C) [AT117 [hGIP(3-30)NH2[H18K]-C16/18]] | – | – | – | 292 | IC50 (human GIP receptor [5]): 1730 nM; cAMP - antagonisme IC50 (human GIP receptor [4]): 19.4 nM; IC50 (human GIP receptor [6]): 110 nM
7 | EGTFISDYSIAMEK(Palmitoyl)IAQQDFVNWLLAQK-NH2 (N-terminus assumed; SMILES CCCCCCCCCCCCCCCC(=O)NCCCC[C@H](NC(=O)[C@H](CCC(=O)O)NC(=O)[C@H](CCSC)NC(=O)[C@H](C)NC(=O)[C@@H](NC(=O)[C@H](CO)NC(=O)[C@H](Cc1ccc(O)cc1)NC(=O)[C@H](CC(=O)O)NC(=O)[C@H](CO)NC(=O)[C@@H](NC(=O)[C@H](Cc1ccccc1)NC(=O)[C@@H](NC(=O)CNC(=O)[C@@H](N)CCC(=O)O)[C@@H](C)O)[C@@H](C)CC)[C@@H](C)CC)C(=O)N[C@H](C(=O)N[C@@H](C)C(=O)N[C@@H](CCC(N)=O)C(=O)N[C@@H](CCC(N)=O)C(=O)N[C@@H](CC(=O)O)C(=O)N[C@@H](Cc1ccccc1)C(=O)N[C@H](C(=O)N[C@@H](CC(N)=O)C(=O)N[C@@H](Cc1c[nH]c2ccccc12)C(=O)N[C@@H](CC(C)C)C(=O)N[C@@H](CC(C)C)C(=O)N[C@@H](C)C(=O)N[C@@H](CCC(N)=O)C(=O)N[C@@H](CCCCN)C(N)=O)C(C)C)[C@@H](C)CC) [AT131 [hGIP(3-30)NH2[D15E; H18A]-C16/16]] | – | – | – | 6510 | fold (paired) (human GIP receptor [2]): 49 fold; cAMP - antagonisme IC50 (human GIP receptor [4]): 65 nM; cAMP - antagonisme fold (paired) (human GIP receptor [4]): 1.1 fold
8 | EGTFISDYSIAMDKIK([γGlu-AEEA-Palmitoyl])QQDFVNWLLAQK-NH2 (also: order of γGlu and AEEAc linker pieces on Lys not given here) [AT167 [hGIP(3-30)NH2[H18K]-C16/18+y-glutamic acid+8-amino-3,6-dioxaoctanoic acid]] | 4.4 | -8.36 log(M) | 14.8 | – | –
9 | EGTFISDYSIAMDKIK([γGlu-Palmitoyl])QQDFVNWLLAQK-NH2 (N-terminus assumed; SMILES CCCCCCCCCCCCCCCC(=O)N[C@@H](CCC(=O)NCCCC[C@H](NC(=O)[C@@H](NC(=O)[C@H](CCCCN)NC(=O)[C@H](CC(=O)O)NC(=O)[C@H](CCSC)NC(=O)[C@H](C)NC(=O)[C@@H](NC(=O)[C@H](CO)NC(=O)[C@H](Cc1ccc(O)cc1)NC(=O)[C@H](CC(=O)O)NC(=O)[C@H](CO)NC(=O)[C@@H](NC(=O)[C@H](Cc1ccccc1)NC(=O)[C@@H](NC(=O)CNC(=O)[C@@H](N)CCC(=O)O)[C@@H](C)O)[C@@H](C)CC)[C@@H](C)CC)[C@@H](C)CC)C(=O)N[C@@H](CCC(N)=O)C(=O)N[C@@H](CCC(N)=O)C(=O)N[C@@H](CC(=O)O)C(=O)N[C@@H](Cc1ccccc1)C(=O)N[C@H](C(=O)N[C@@H](CC(N)=O)C(=O)N[C@@H](Cc1c[nH]c2ccccc12)C(=O)N[C@@H](CC(C)C)C(=O)N[C@@H](CC(C)C)C(=O)N[C@@H](C)C(=O)N[C@@H](CCC(N)=O)C(=O)N[C@@H](CCCCN)C(N)=O)C(C)C)C(=O)O) [AT164 [hGIP(3-30)NH2[H18K]-C16/18+y-glutamic acid]] | 10.2 | -7.99 log(M) | 6.3 | – | –
